Reference: article PMC11933685 (Nature Communications, 2025)

Target: T1, recombinant mouse neuropilin-1 (C-6His, #C11R; NRP-1) (mouse, UniProt P97333 22-856)
T1 sequence (looked up): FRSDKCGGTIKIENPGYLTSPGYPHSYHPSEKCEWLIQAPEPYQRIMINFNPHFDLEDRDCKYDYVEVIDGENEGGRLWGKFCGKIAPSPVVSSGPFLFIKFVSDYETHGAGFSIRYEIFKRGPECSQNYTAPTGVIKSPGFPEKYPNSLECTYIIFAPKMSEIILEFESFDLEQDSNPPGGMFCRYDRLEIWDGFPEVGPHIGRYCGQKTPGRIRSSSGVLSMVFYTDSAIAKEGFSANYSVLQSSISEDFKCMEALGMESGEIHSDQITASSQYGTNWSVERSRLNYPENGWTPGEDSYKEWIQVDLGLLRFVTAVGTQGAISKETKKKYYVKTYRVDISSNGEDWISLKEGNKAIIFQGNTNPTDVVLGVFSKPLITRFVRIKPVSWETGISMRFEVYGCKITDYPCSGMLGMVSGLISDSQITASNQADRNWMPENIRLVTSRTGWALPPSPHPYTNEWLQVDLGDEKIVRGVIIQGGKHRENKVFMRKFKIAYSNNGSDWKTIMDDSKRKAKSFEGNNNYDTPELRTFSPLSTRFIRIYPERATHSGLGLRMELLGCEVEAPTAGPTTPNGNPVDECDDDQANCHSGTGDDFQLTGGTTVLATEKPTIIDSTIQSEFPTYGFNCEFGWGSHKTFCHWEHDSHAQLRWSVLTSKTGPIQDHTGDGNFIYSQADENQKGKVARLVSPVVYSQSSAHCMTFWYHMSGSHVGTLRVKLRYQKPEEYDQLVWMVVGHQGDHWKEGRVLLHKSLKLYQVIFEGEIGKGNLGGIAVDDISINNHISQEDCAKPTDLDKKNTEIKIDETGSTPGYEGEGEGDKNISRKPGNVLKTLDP
Assay: SPR

B1: cancer homing peptide (CHP, CGNKRTR), free peptide (peptide)
peptide: CGNKRTR
- Kd: 6.49 µM
